# Experimental data: article doi:10.1101/2022.08.23.504973 (bioRxiv, 2022)
# Target: KEAP1 (Kelch-like ECH-associated protein 1), recombinant (UniProt Q14145 1-624)
# Experiment: SPR
# Chain of KEAP1 (Kelch-like ECH-associated protein 1), recombinant (Q14145 whole entry): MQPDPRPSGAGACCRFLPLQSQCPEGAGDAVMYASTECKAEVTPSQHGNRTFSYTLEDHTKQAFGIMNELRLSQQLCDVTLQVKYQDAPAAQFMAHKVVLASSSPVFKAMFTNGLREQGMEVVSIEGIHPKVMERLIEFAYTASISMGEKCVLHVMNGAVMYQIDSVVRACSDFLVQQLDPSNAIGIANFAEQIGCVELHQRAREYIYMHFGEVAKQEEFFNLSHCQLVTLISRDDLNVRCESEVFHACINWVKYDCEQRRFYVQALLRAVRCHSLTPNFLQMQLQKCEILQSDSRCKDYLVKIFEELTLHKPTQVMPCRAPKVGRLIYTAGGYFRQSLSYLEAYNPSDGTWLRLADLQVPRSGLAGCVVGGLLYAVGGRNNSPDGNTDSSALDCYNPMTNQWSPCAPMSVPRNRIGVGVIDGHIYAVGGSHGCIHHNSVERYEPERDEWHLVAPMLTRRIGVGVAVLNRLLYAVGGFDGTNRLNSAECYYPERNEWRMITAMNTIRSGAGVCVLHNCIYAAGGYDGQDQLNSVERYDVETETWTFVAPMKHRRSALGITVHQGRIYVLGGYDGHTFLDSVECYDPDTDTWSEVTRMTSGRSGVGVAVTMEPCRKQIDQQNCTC
binder,measurement,value
"BDNF mature recombinant (brain-derived neurotrophic factor) (ligand, human, UniProt P23560 129-247, looked up) HSDPARRGELSVCDSISEWVTAADKKTAVDMSGGTVTVLEKVPVSKGQLKQYFYETKCNPMGYTKEGCRGIDKRHWNSQCRTTQSYVRALTMDSKKRIGWRFIRIDTSCVCTLTIKRGR",Kd,2.71 nM
same,koff,0.00225 s⁻¹
same,kon,828000 M⁻¹ s⁻¹
